The supplement of paper PMC9170038

System: MS2 coat protein
Test: apparent KD of MS2 coat protein; designed switch direction (-1 OFF switch, 1 ON switch): -1; higher = weaker reporter binding
Method in brief: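 The apparent KD reported per design is the median over clusters of curve fits to normalised cluster fluorescence. The RNA switches were transcribed on Illumina chips by stalled E. coli RNA polymerase. SNAP-549-labelled MS2 coat protein was titrated from 0.7 or 1.5 nM, doubling up to 3 µM, in Tris-HCl pH 7.5 buffer containing KCl, MgCl2, BSA, DTT, tRNA and Tween-20, with no input, 200 uM small-molecule ligand, or an oligonucleotide input.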

[1] = Eterna round: R95, input ligand: microRNA oligo, concentration not stated
[2] = input ligand: microRNA oligo, concentration not stated
[3] = Eterna round: R95, input ligand: FMN 200 uM
[4] = Eterna round: R95, input ligand: none

Sequence | apparent KD of MS2 coat protein (input ligand: FMN 200 uM) | apparent KD of MS2 coat protein [2] | apparent KD of MS2 coat protein (input ligand: none) | also measured
GUGACACAUGAGGAUCACCCAUGUGAGGAUAUGAUACUAUGUACUUCGGUACAUAGUAUCAGAAGGCACAGUGA [Ex1-3: 7] (puzzle: Exclusion 1) | – | – | – | apparent KD of MS2 coat protein [1]: 43.2 nM
GUAUCGUGAGGAUAUCAUGAUUGACUUAAUUUAUGUCAGCGUGAGAAGGCACAUGAGGAUCACCCAUGUGAUUA [Ex4 - 3 - 6] (puzzle: Exclusion 4) | – | – | – | apparent KD of MS2 coat protein [1]: 20.5 nM
CUAGAUCUUCGGAUCUAGGACAUGAGGAUCACCCAUGUCACGAGCAGAUCUUCAUGCAAGCUUUUUGCUCGUCUUAU [Sensor v3 - Turn-off variant 1 - 37] (Eterna round: R96, puzzle: Sensor v3, turn-off variant 1) | 27 nM | 339 nM | 29.2 nM | –
CUGAAGAAGUUAGUGGCCUACAUGAGGAUCACCCAUGUGAGGGACAUGUCGAGGCAGAAGCUGAGUGCUCGUCUGUA [JR_SV3TOV1_Sub042] (puzzle: Sensor v3, turn-off variant 1) | – | – | – | apparent KD of MS2 coat protein [3]: 16 nM; apparent KD of MS2 coat protein [1]: 20 nM; apparent KD of MS2 coat protein [4]: 17 nM
GGGCUUCGAGUCAGGAUAUAAGGCCGCUGGCCCAUUUAGAAGGGACUUGAGGAUCACCCAAGUCACCACGGACG [Geceisbi] (Eterna round: R97, puzzle: Brourd's mod of Exclusion 4) | 19.3 nM | – | 16.8 nM | –
GUGGUACAUGAGGAUCACCCAUGUGAGGAUAUAGUCGGCUGGUGGUCGCGGGUGGUGGCUAGAAGGUGCGUGCG [-19.3, -16.9 kcal, A 18%] (Eterna round: R97, puzzle: Exclusion 1) | 171 nM | – | 179 nM | –
CGAUGCACGAGUCCACAUGAGGAUCACCCAUGUCGUGUUAGCGAGGAUAUCGGAGACACAUAGUAUGAGAAGGCGCGAACCUGA [Ex NG3 #21] (Eterna round: R96, puzzle: Exclusion NG 3) | 16.4 nM | 11.2 nM | 13.4 nM | –
UUUACAAGCUAUUGAUCCCACAUGAGGAUCACCCAUGUUCCUGGCCGUGAGGCUAGGUAAACAAUUGCUCGUCUUAU [JL TOV1 3.69] (Eterna round: R97, puzzle: Sensor, turn-off variant 1) | 903 nM | – | 1370 nM | –
GCAAGCUUUAUCACUAUGAACAUGAGGAUCACCCAUGUAUAAGGUAUUACUUUUGGGCCCUUUAGUGCUCGUCUUAU [JR_STOV1_Sub032] (Eterna round: R97, puzzle: Sensor, turn-off variant 1) | 29.8 nM | – | 29.3 nM | –
UUUGUUGUUGUGAGGAUAUACUGUUUGUUUUGUUUGUAGAAGGUACAUGAGGAUCACCCAUGUUGGUUGUUUUU [JR_BME4_Sub030] (puzzle: Brourd's mod of Exclusion 4) | – | – | – | apparent KD of MS2 coat protein [1]: 24.3 nM
ACUGGAGCAGGAUAUACAUAACGUGCUUCGGCACGAGAUCUACAUGAGGAUCACCCAUGUAGAAGGGCUCCAGU [E2/10-D1] (Eterna round: R97, puzzle: Exclusion 2) | 28.3 nM | – | 13.3 nM | –
ACUUGCUUUUUGCUCGUCUUAUUUUUGUUGACGUUCUAUACAUGAGGAUCACCCAUGUUUUGUUCCUUGUGCUGGUA [JR_SV3TOV2_Sub073] (puzzle: Sensor v3, turn-off variant 2) | – | – | – | apparent KD of MS2 coat protein [3]: 169 nM; apparent KD of MS2 coat protein [1]: 183 nM; apparent KD of MS2 coat protein [4]: 166 nM
CAUUAUUAUCGAGGAUAUCCUAUUGAAAUUCUGGGAGAAGGCGGACUCAACAUGAGGAUCACCCAUGUGAGACGGAUGCUAGGG [Ex NG1 #27] (Eterna round: R96, puzzle: Exclusion NG 1) | – | 15 nM | – | –
AUAUUGUGAGGAUAUGAUCUUAGUAUCGAAAGAUACUAAGUUCAGAAGGCACAUGAGGAUCACCCAUGUUUCUC [Long static hairpin v14] (Eterna round: R97, puzzle: Exclusion 4) | 982 nM | – | 70.6 nM | –
UCAGGCGAUGUCAGGAUAUCGGCUGCCCAAUUGGCUGAGAAGGGACAUGAGGAUCACCCAUGUUAGAUCCAGCC [BmEX4 A.25] (Eterna round: R97, puzzle: Brourd's mod of Exclusion 4) | 30.2 nM | – | 16.9 nM | –
UAGUUAUUCACAGGAUAUCGCCUCUUAUUACAUGAGGAUCACCCAUGUUUAUUUUGUUACAUGUUCGAGAAGGGUGUAGCCGUU [JR_ExcNG2_Sub045] (Eterna round: R96, puzzle: Exclusion NG 2) | – | 258 nM | – | –
AUAAUGUCAGGAUAUCAGACGUACAGCUGCGGCUGUACGUCUGAGAAGGGACAUGAGGAUCACCCAUGUGAUUA [E4/3-A3] (Eterna round: R97, puzzle: Exclusion 4) | 124 nM | – | 1460 nM | –

Sequence | apparent KD of MS2 coat protein (input ligand: FMN 200 uM) | apparent KD of MS2 coat protein [2] | apparent KD of MS2 coat protein (input ligand: none) | also measured
UGAUGACAUGAGGAUCACCCAUGUCAGGAUAUUGAUCGUGAUCGGAAAUGAUCGUGAUCGAGAAGGGACUGUCG [-24.4, -21.4 kcal, A 28%, 2] (Eterna round: R97, puzzle: Exclusion 1) | 31.8 nM | – | 27.6 nM | –
CGCGGAUGUAUAUGUCCGCACAUGAGGAUCACCCAUGUAAUAUAAGAUGAUAUUAAACAAAUUUUUGCUUGUCAGUU [Eternabot (L1) Solution 37] (Eterna round: R97, puzzle: Sensor, turn-off variant 1) | 31 nM | – | 38.2 nM | –
CCUUGACAUGAGGAUCACCCAUGUGAGGAUAUGAUGCGAUCGUCGAAAGACGAUAGCAUCAGAAGGCACAUAUG [Fiskers Ex 1 - 8] (Eterna round: R96, puzzle: Exclusion 1) | 91.8 nM | 12.8 nM | 24.4 nM | –
ACAUGAGGAUCACCCAUGUCAGGCGGGUCCACUCCGGCUGUUGAGGAUAUAGCCCGGUAUCCGCGCUAGAAGGUGAGGGCCGGC [Aenatbe mod 25] (Eterna round: R96, puzzle: Exclusion NG 3) | 23.1 nM | 18.4 nM | 24.1 nM | –
AGAUGGAUUGCUAGAAAACUAGUAAUUCAUCAAUCAAGCACAUGAGGAUCACCCAUGUCUUAGAGUACGUGAGUACA [JL gull wing 9] (Eterna round: R96, puzzle: Sensor v2, turn-off variant 2) | 12.8 nM | 12.5 nM | 16 nM | –
AGCUGUGGCCGAGGAUAUCUAAAACCUCAAAACGAAAUAUAAUCGAACAUGAGGAUCACCCAUGUAGAGAAGGCGGUCUCAGCA [Eli eng2 - 031] (Eterna round: R96, puzzle: Exclusion NG 2) | – | 214 nM | – | –
GGACAUAAAGUCAGGAUAUUAAGGCGAACAAGCGAUGAGAAGGGACAUGAGGAUCACCCAUGUGAUUCGCAUCA [Raerce] (Eterna round: R97, puzzle: Brourd's mod of Exclusion 4) | 32.7 nM | – | 24.1 nM | –
AGCUGGAGAGGAUAUACGUAGGAAAAAAAAGUCUGAUCACUACAUGAGGAUCACCCAUGUAGAAGGCUCUGGCA [Ex2 Design 162: Sub-opt 26] (Eterna round: R96, puzzle: Exclusion 2) | 104 nM | 16.5 nM | 20.5 nM | –
GUUGCGUUUGUGAGGAUAUGCUGGUCCUUGGUUCGGCAGAAGGCACAUGAGGAUCACCCAUGUGGUGUUGUUCC [salish99_Bmod_ex4_052] (puzzle: Brourd's mod of Exclusion 4) | – | – | – | apparent KD of MS2 coat protein [1]: 90.5 nM
UUUUUAUAUGAAGGAUAUACUUAACAUGAGGAUCACCCAUGUGGUGUUGUGAGUGAGUGAGUUUAGUAGAAGGUCAAUUAGUUU [JMF's solution 12] (Eterna round: R96, puzzle: Exclusion NG 2) | 363 nM | 157 nM | 209 nM | –
GAAGAUCUGCAGGAUAUGAGACUGAAACAGUUCUCAGAAGGGCGGACAUGAGGAUCACCCAUGUAAGACUGCAA [Eternabot (Original) Solution 4] (Eterna round: R97, puzzle: Exclusion 6) | 41.6 nM | – | 78.8 nM | –
GUUGUUUAUGUAGGAUAUGCAAGGCGAGCCUAAGCAGAAGGACAUGAGGAUCACCCAUGUAUUGCGGUCUGCGUUCAGAUCGCU [salish99_ExNG1_r4_015] (Eterna round: R96, puzzle: Exclusion NG 1) | 164 nM | 17.3 nM | 25.9 nM | –
GAUCGACAUGAGGAUCACCCAUGUCAGGAUAUCGUCACUGGAGCCUCGGCUCCAGUGACGAGAAGGGAUAUAAU [E1/16-A2] (Eterna round: R97, puzzle: Exclusion 1) | 31.6 nM | – | 32 nM | –
AUUAUAAUAUAGGAUAUCGAAAUAAUUAUUUAACGAGAAGGAUGAACAUGAGGAUCACCCAUGUGGUAUCAUGG [Mat - Exclusion 6 - JL Mod - D33] (puzzle: Exclusion 6) | – | – | – | apparent KD of MS2 coat protein [3]: 160 nM; apparent KD of MS2 coat protein [1]: 360 nM; apparent KD of MS2 coat protein [4]: 224 nM
CCUUCUCCACAGGAUAUGCUCAUCUAAUGAUGAGCAGAAGGGUGGACAUGAGGAUCACCCAUGUUUAUCAAUGG [Omei Ex6 D2] (Eterna round: R97, puzzle: Exclusion 6) | 589 nM | – | 428 nM | –
GCAAGCUUAAUCUGUAUGAACAUGAGGAUCACCCAUGUAUAAGGUAAUUCUUUUGGGUUUUUUAUUGCUCGUCUUAU [JR_STOV1_Sub025] (Eterna round: R97, puzzle: Sensor, turn-off variant 1) | 189 nM | – | 210 nM | –
GACGAGUGAGGAUAUGGUGAGUAGUGCCUGAGCGCUGCUCACCAGAAGGCACAUGAGGAUCACCCAUGUAUGUC [Mat - Exclusion 4 - Mod of JL - D11] (puzzle: Exclusion 4) | – | – | – | apparent KD of MS2 coat protein [1]: 13.2 nM
